What was measured:
Boc-Val-Leu-Lys-MCA = tested on: T1, Boc-Val-Leu-Lys-MCA
T1 sequence: VLK

[1] = tested on: T2, Nma-VGAK(Ac)RHSK(Dnp)-NH2
T2 sequence: VGAKRHSK

Boc-Val-Leu-(Ac)Lys-MCA = tested on: T3, Boc-Val-Leu-(Ac)Lys-MCA
T3 sequence: VLK

[2] = molecular target: T4, Nma-VGAK(Ac)RHSK(Dnp)-NH2
T4 chain: VGAKRHSK

## lysylendopeptidase
Boc-Val-Leu-Lys-MCA
  peptide cleavage activity (fluorescence intensity of released AMC): digested Boc-Val-Leu-Lys-MCA
[1]
  peptide cleavage (fluorescence intensity): In the absence of recombinant SIRT1, the fluorescence intensity did not increase, namely, the fluorescent substrate was not cleaved off by LEP at all.
Boc-Val-Leu-(Ac)Lys-MCA
  peptide cleavage activity (fluorescence intensity of released AMC): did not cleave Boc-Val-Leu-(Ac)Lys-MCA

## plasmin
Boc-Val-Leu-Lys-MCA
  peptide cleavage activity (fluorescence intensity of released AMC): digested Boc-Val-Leu-Lys-MCA
Boc-Val-Leu-(Ac)Lys-MCA
  peptide cleavage activity (fluorescence intensity of released AMC): did not cleave Boc-Val-Leu-(Ac)Lys-MCA

B1: recombinant SIRT1 (GST fused to the amino terminal end) (protein)
chain: MADEAALALQPGGSPSAAGADREAASSPAGEPLRKRPRRDGPGLERSPGEPGGAAPEREVPAAARGCPGAAAAALWREAEAEAAAAGGEQEAQATAAAGEGDNGPGLQGPSREPPLADNLYDEDDDDEGEEEEEAAAAAIGYRDNLLFGDEIITNGFHSCESDEEDRASHASSSDWTPRPRIGPYTFVQQHLMIGTDPRTILKDLLPETIPPPELDDMTLWQIVINILSEPPKRKKRKDINTIEDAVKLLQECKKIIVLTGAGVSVSCGIPDFRSRDGIYARLAVDFPDLPDPQAMFDIEYFRKDPRPFFKFAKEIYPGQFQPSLCHKFIALSDKEGKLLRNYTQNIDTLEQVAGIQRIIQCHGSFATASCLICKYKVDCEAVRGDIFNQVVPRCPRCPADEPLAIMKPEIVFFGENLPEQFHRAMKYDKDEVDLLIVIGSSLKVRPVALIPSSIPHEVPQILINREPLPHLHFDVELLGDCDVIINELCHRLGGEYAKLCCNPVKLSEITEKPPRTQKELAYLSELPPTPLHVSEDSSSPERTSPPDSSVIVTLLDQAAKSNDDLDVSESKGCMEEKPQEVQTSRNVESIAEQMENPDLKNVGSSTGEKNERTSVAGTVRKCWPNRVAKEQISRRLDGNQYLFLPPNRYIFHGAEVYSDSEDDVLSSSSCGSNSDSGTCQSPSLEEPMEDESEIEEFYNGLEDEPDVPERAGGAGFGTDGDDQEAINEAISVKQEVTDMNYPSNKS
[2]
  NAD-dependent deacetylase activity (fluorescence intensity, lysylendopeptidase-coupled assay): the fluorescence intensity increased in an NAD concentration-dependent fashion. In the absence of NAD, regardless of the presence of the recombinant SIRT1, the fluorescence intensity did not increase
  deacetylase activity (fluorescence intensity, lysylendopeptidase-coupled assay): the fluorescence intensity increased was proportional to the recombinant SIRT1 concentration

Reference: patent publication US20030082668
